This is an account of results in patent US20200216495A1 (ADRX, published 2020).

“And” between values parts separate entries of the source, which are not always exact repeats. Identical values can stand only once. Square brackets hold non-standard residues; d marks the D form. Primed or numbered codes have the meaning given here. Ends that are not written are not given here. dCha = N[C@H](CC1CCCCC1)C(=O)O; dNle = CCCC[C@@H](N)C(=O)O; PEG2′ = not defined here; Tam = not defined here

To fix the notation:
T1: His-Tau40 P301L Tau fibrils (human)
T1 chain: RLRIRW

T2: Tau40 P301L protein (human)
T2 sequence: WIKIRR

T3: Ac-VQIINK-NH2 (SEQ ID NO: 23)
T3 sequence (peptide, N-terminal acetyl (Ac); C-terminal amide (NH2)): RLKIRW

One assay concerns the target T1, His-Tau40 P301L Tau fibrils. As to the kind of experiment: cell-based or functional assay.
In the case of Tam-RRRRRRRRRRGGSGG[dE][dL][dK][dI][dV][dW] (reading uncertain; also: printed as Tam-RRRRRRRRRR-GGSGG-elkivw) [Tam-RRRRRRRRRR-GGSGG-elkivw], the “EC50, HEK cell assay (TauRD(P301S) split luciferase, seeded with tau fibrils)” value was determined as 5.6 µM.

The target of the next assay is Tau40 P301L protein (human). As to the kind of experiment: cell-based or functional assay.
[dL][dK][dT][dR][dI][dH][dY] [lktrihy]: the “IC50, Tau40 assay (ThT)” value is 12.5 µM.

[dW][dR][dL][dK][dV] [wrlkv]: the “IC50, Tau40 assay (ThT)” value came to 15.1 µM.

Take [dW][dE][dV][dQ][dV][dE][dW] [wevqvew]: the “IC50, Tau40 assay (ThT)” value stood at 11.7 µM.

With [dE][dL][dK][dI][dV][dW] [elkivw], the “IC50, Tau40 assay (ThT)” value was 16 µM and 16.6 µM.

[dT][dI][dK][dL][dV][dW] [tiklvw]: the “IC50, Tau40 assay (ThT)” value is 13.7 µM and 14.3 µM.

For the molecule [dA][dR][dA][dR][dI][dH][dW] [ararihw], the “IC50, Tau40 assay (ThT)” value worked out at 12.6 µM.

Take [dW][dR][dE][dK][dV][dR][dW][dW] [wrekvrww]: the “IC50, Tau40 assay (ThT)” value turned out to be 19.3 µM.

For [dL][dE][dF][dE][dL][dK][dY][dW] [lefelkyw], the “IC50, Tau40 assay (ThT)” value is 19.7 µM.

Take [dW][dR][dL][dK][dV][dR] [wrlkvr]: the “IC50, Tau40 assay (ThT)” value was found to be 18.5 µM.

Regarding [dW][dR][dA][dK][dA][dR][dW] [wrakarw], the “IC50, Tau40 assay (ThT)” value is 12.7 µM.

[dW][dD][dL][dD][dV][dR][dW] [wdldvrw]: the “IC50, Tau40 assay (ThT)” value came out at 14 µM.

Take [dW][dR][dH][dK][dH][dR][dW] [wrhkhrw]: the “IC50, Tau40 assay (ThT)” value amounted to 19.2 µM.

Turning to [dL][dK][dR][dR][dI][dH][dY][dH] [lkrrihyh], the “IC50, Tau40 assay (ThT)” value came to 15.4 µM.

On to [dW][dK][dV][dP][dV][dR][dY][dW] [wkvpvryw], for which the “IC50, Tau40 assay (ThT)” value is 19 µM and 19.8 µM.

For the molecule [dF][dR][dL][dK][dI][dR][dW] [frlkirw], the “IC50, Tau40 assay (ThT)” value is 11.7 µM and 12.2 µM.

Turning to [dL][dK][dI][dA][dI][dH][dY][dH] [lkiaihyh], the “IC50, Tau40 assay (ThT)” value was determined as 19.5 µM.

Regarding [dF][dE][dL][dE][dI][dE][dW][dH] [feleiewh], the “IC50, Tau40 assay (ThT)” value was 14.3 µM and 19.5 µM.

In another assay the target is T2, Tau40 P301L protein (human). Kind of assay: cell-based or functional assay.
[dL][dK][dNle][dR][dI][dH][dY] [lkurihy (PEPTIDE ID NO: 279)] showed an IC50, Tau40 assay (ThT) of 1.59 µM.

Turning to [dL][dK][dCha][dR][dI][dH][dY] [lkbrihy (PEPTIDE ID NO: 252)], the IC50, Tau40 assay (ThT) amounted to 1.16 µM.

[dCha][dR][dL][dK][dV][dR][dW] [brlkvrw (PEPTIDE ID NO: 293)]: the IC50, Tau40 assay (ThT) stood at 1.82 µM.

[dNle][dK][dI][dR][dI][dH][dY] [ukirihy (PEPTIDE ID NO: 203)] showed an IC50, Tau40 assay (ThT) of 0.73 µM.

The molecule [dW][dR][dCha][dK][dCha][dR][dW] (not fully specified; printed as wrbkbrw) [wrbkbrw] had an IC50, Tau40 assay (ThT) of 9.33 µM.

Consider [dL][dK][dI][dR][dNle][dH][dY] [lkiruhy (PEPTIDE ID NO: 267)], for which the IC50, Tau40 assay (ThT) amounted to 1.43 µM.

[dW][dR][dL][dK][dCha][dR][dW] [wrlkbrw (PEPTIDE ID NO: 307)]: the IC50, Tau40 assay (ThT) amounted to 2.11 µM.

Molecule [dW][dR][dL][dK][dNle][dR][dW] [wrlkurw (PEPTIDE ID NO: 308)] came in with an IC50, Tau40 assay (ThT) of 2.12 µM.

[dW][dR][dNle][dK][dNle][dR][dW] [wrukurw] showed an IC50, Tau40 assay (ThT) of 7.21 µM.

Turning to [dCha][dK][dI][dR][dI][dH][dY] [bkirihy (PEPTIDE ID NO: 249)], the IC50, Tau40 assay (ThT) was 1.09 µM.

Take [dW][dR][dCha][dK][dV][dR][dW] [wrbkvrw (PEPTIDE ID NO: 286)]: the IC50, Tau40 assay (ThT) is 1.65 µM.

Molecule [dNle][dR][dL][dK][dV][dR][dW] [urlkvrw (PEPTIDE ID NO: 282)] displayed an IC50, Tau40 assay (ThT) of 1.63 µM.

Molecule [dW][dR][dNle][dK][dV][dR][dW] [wrukvrw (PEPTIDE ID NO: 258)] showed an IC50, Tau40 assay (ThT) of 1.25 µM.

In turn, [dL][dK][dI][dR][dCha][dH][dY] [lkirbhy (PEPTIDE ID NO: 228)] showed an IC50, Tau40 assay (ThT) of 0.9 µM.

For [dL][dK][dNle][dR][dNle][dH][dY] [lkuruhy (PEPTIDE ID NO: 287)], the IC50, Tau40 assay (ThT) stood at 1.65 µM.

In another assay the target is T3, Ac-VQIINK-NH2 (SEQ ID NO: 23). As to the kind of experiment: cell-based or functional assay.
For [dNle][dR][dL][dK][dV][dR][dW] [urlkvrw], the VQIINK Inhibition IC50 was found to be 2.29 µm.

For the molecule [dW][dR][dL][dK][dCha][dR][dW] (not fully specified; printed as wrlkbrw) [wrlkbrw], the VQIINK Inhibition IC50 turned out to be 0.35 µm.

[dL][dK][dNle][dR][dNle][dH][dY] [lkuruhy]: the VQIINK Inhibition IC50 was determined as 0.87 µm.

[dW][dR][dCha][dK][dCha][dR][dW] (not fully specified; printed as wrbkbrw) [wrbkbrw] showed a VQIINK Inhibition IC50 of 0.77 µm.

As to [dCha][dR][dL][dK][dV][dR][dW] (not fully specified; printed as brlkvrw) [brlkvrw], the VQIINK Inhibition IC50 was determined as 2.31 µm.

As for [dW][dR][dCha][dK][dV][dR][dW] (not fully specified; printed as wrbkvrw) [wrbkvrw], the VQIINK Inhibition IC50 is 0.41 µm.

Turning to [dNle][dK][dI][dR][dI][dH][dY] [ukirihy], the VQIINK Inhibition IC50 amounted to 1.12 µm.

In turn, [dW][dR][dL][dK][dNle][dR][dW] [wrlkurw] displayed a VQIINK Inhibition IC50 of 1.41 µm.

Molecule [dW][dR][dNle][dK][dNle][dR][dW] [wrukurw] came in with a VQIINK Inhibition IC50 of 1.73 µm.

Regarding [dL][dK][dI][dR][dNle][dH][dY] [lkiruhy], the VQIINK Inhibition IC50 amounted to 2.07 µm.

Regarding [dL][dK][dNle][dR][dI][dH][dY] [lkurihy], the VQIINK Inhibition IC50 turned out to be 1.5 µm.

Regarding [dW][dR][dNle][dK][dV][dR][dW] [wrukvrw], the VQIINK Inhibition IC50 amounted to 2.1 µm.

For another assay, the target named is Tau40 P301L protein (human). Kind of assay: cell-based or functional assay. The source holds these as a separate data set.
Turning to {TAMRA5-PEG2′}-[dW][dR][dA][dK][dA][dR][dA][dW]-OH [TAMRA5-PEG2-wrakaraw-OH], the “IC50, Tau40 assay-Modified peptides (ThT)” value turned out to be 9.17 µM.

Take Tam-RRRRRRRRRGGSGG[dR][dL][dK][dV][dR][dW] (reading uncertain; also: printed as Tam-RRRRRRRRR-GGSGG-rlkvrw) [Tam-RRRRRRRRR-GGSGG-rlkvrw]: the “IC50, Tau40 assay-Modified peptides (ThT)” value is 20.1 µM.

In the case of YGRKKRRQRRRGGSGG[dR][dL][dK][dV][dR][dW] [[…]-GGSGG-rlkvrw], the “IC50, Tau40 assay-Modified peptides (ThT)” value came to 1.73 µM.

As to Tam-RRRRRRRRRRGGSGG[dW][dR][dI][dW][dI][dR][dY][dW] (reading uncertain; also: printed as Tam-RRRRRRRRRR-GGSGG-wriwiryw) [Tam-RRRRRRRRRR-GGSGG-wriwiryw], the “IC50, Tau40 assay-Modified peptides (ThT)” value turned out to be 4.94 µM.

Take Tam-YGRKKRRQRRRGGSGG[dR][dL][dK][dV][dR][dW] (reading uncertain) [Tam-[…]-GGSGG-rlkvrw]: the “IC50, Tau40 assay-Modified peptides (ThT)” value amounted to 6.6 µM.

RRRRRRRRRGGSGG[dR][dL][dK][dV][dR][dW] [RRRRRRRRR-GGSGG-rlkvrw]: the “IC50, Tau40 assay-Modified peptides (ThT)” value is 6.07 µM.
